US20230054375A1 (UAB RESEARCH FOUNDATION, published 2023)

Molecular target: CD47 receptor (plate-coated and soluble antigen of the affinity ELISA) (UniProt Q08722 19-141, limits assumed)
Assay: ELISA of equilibrated mAb/receptor mixtures on CD47-coated plate (Friguet method)
Protocol: Briefly, the 96-well plate was coated with 200 ng of CD47 receptor in 100 μL of coating buffer (50 mM carbonate-bicarbonate buffer, pH 9.6) and incubated at 4° C. overnight. The plate was washed three times with PBS containing 0.05% Tween 20, and blocked with 2% BSA (bovine serum albumin). […] After incubating at 37° C. for 1 hr, 100 μL of HRP goat anti-mouse IgG secondary antibody (Abcam, Cambridge, Mass.) at concentration of 50 ng/mL was added to each well and incubated at 37° C. for 1 hr, followed with TMB substrate for color development. The reaction was stopped by adding 100 μL of 1M sulfuric acid. The absorbance was recorded with BioTek plate reader at a wavelength of 450 nm.

CD47 receptor (plate-coated and soluble antigen of the affinity ELISA), sequence (Q08722 19-141 limits assumed): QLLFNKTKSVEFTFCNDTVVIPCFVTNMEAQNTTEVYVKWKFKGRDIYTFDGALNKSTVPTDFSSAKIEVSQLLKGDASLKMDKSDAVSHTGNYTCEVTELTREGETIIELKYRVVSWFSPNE

- Kd: 2.3 nM
B1: anti-CD47 monoclonal antibody (IgG2b/kappa) (antibody, V domains shown)
VH: EVQLVESGGGLVQPKGSLKLSCAASGFTFNTYAMNWVRQAPGKGLEWIARIRSKSNNYATYYADSMKDRFTISRDDSQSMLYLQMNNLKTEDTAMYYCVRPAQGAMDYWGHGTSVTVSS
VL: DIVLTQSPATLSVTPGDSVSLSCRASQRISNNLHWYQQKSHESPRLLIKYSSQSISGIPSRFSGSGSGTDFTLSINSVETEDFGMYFCQQSNAWPYTFGGGTKLEIRR
notes: The antibody was labelled with Alexa Fluor 647 for flow cytometry and confocal imaging; also called anti-CD47 mAb; CD47 mAb
